Common to all, as to assay type: biochemical
Conditions in all cases: EK-activated protease; substrate 500 uM; pH 7.8; 37° C.; 120 minutes

Series [1] can be described thus: Chromogenic amidolytic assay, release of pNA from H-D-Pro-HHT-Arg-pNA. How it is done: (§1) Cells were lysed on ice in 20 mM Tris (pH7.4), 150 mM NaCl, 1% Triton X-100, 1 mM EDTA, 1 mM EGTA, 1 mM PMSF, leupeptin (1 μg/ml), and pepstatin (1 μg/ml). Cell lysates were mixed with anti-FLAG M2 affinity gel (Eastman Kodak Co., New Haven, Conn.) and bound at 4° C. for 3 hours with gentle rotation. The zymogen-bound resin was washed 3 times with TBS buffer (50 mM Tris-HCl, 150 mM NaCl at a final pH of 7.5), and eluted by competition with FLAG peptide (100 μg/ml) in TBS buffer. The eluted zymogen was dialyzed overnight against TBS in Spectra/Por membrane (MWCO: 12,000-14,000) (Spectra Medical Industries, Inc., Huston, Tex.). […] Eluted protein concentration was determined by a Micro BCA Kit (Pierce, Rockford, Ill.) using bovine serum albumin as a standard. Amidolytic activities of the activated protease was monitored by release of para-nitroaniline (pNA) from the synthetic substrates indicated in Table 2. […] Release of pNA was measured over 120 minutes at 37° C. on a micro-plate reader (Molecular Devices, Menlo Park, Calif.) with a 405 nm absorbance filter. The initial reaction rates (Vmax, mOD/min) were determined from plots of absorbance versus time using Softmax (Molecular Devices, Menlo Park, Calif.). […] No measurable chromogenic amidolytic activity was detected with the purified unactivated zymogens. […]

A short description of series [2]: Chromogenic amidolytic assay, release of pNA from H-D-Lys(CBO)-Pro-Arg-pNA. How it is done: as §1
The nature of series [3]: Chromogenic amidolytic assay, release of pNA from H-D-Val-Leu-Lys-pNA. The protocol:
as §1

A short description of series [4]: Chromogenic amidolytic assay, release of pNA from H-DL-Val-Leu-Arg-pNA. How it is done: as §1

B1: PFEK-MH2-6XHIS: catalytic domain of human protease MH2 in the PFEK1-6XHIS-TAG activation construct (SEQ.ID.NO.:54), EK-activated (protein)
chain: MDSKGSSQKSRLLLLLVVSNLLLCQGVVSDYKDDDDVDAAALAAPFDDDDKIVGGYNCLEPHSQPWQAALVMENELFCSGVLVHPQWVLSAAHCFQNSYTIGLGLHSLEADQEPGSQMVEASLSVRHPEYNRPLLANDLMLIKLDESVSESDTIRSISIASQCPTAGNSCLVSGWGLLANGRMPTVLQCVNVSVVSEEVCSKLYDPLYHPSMFCAGGGHDQKDSCNGDSGGPLICNGYLQGLVSFGKAPCGQVGVPGVYTNLCKFTEWIEKTVQASSRHHHHHH
In the case of B1, the “specific activity, H-D-Pro-HHT-Arg-pNA” value in series [1] was 0.052 nmole pNA produced /min/ug protein. Further, in series [2], the “specific activity, H-D-Lys(CBO)-Pro-Arg-pNA” value is listed as 0.893 nmole pNA produced /min/ug protein. Moreover, in series [3], the “specific activity, H-D-Val-Leu-Lys-pNA” value is reported as 0.121 nmole pNA produced /min/ug protein. The “specific activity, H-DL-Val-Leu-Arg-pNA” value in series [4] is recorded as 0.058 nmole pNA produced /min/ug protein.

(Values after patent US6420157B1, “Zymogen activation system” (Ortho-McNeil Pharmaceutical, Inc., priority 1999, dated 2002).)
